In paper PMC6235870:

Columns and labels:
[1] = target: C-terminal domain (CTD) of major ampullate spidroin 1 (MaSp1) from Euprosthenops australis, wild type (Euprosthenops australis); assay: far-UV CD equilibrium chemical denaturation at varying protein concentration; urea 0-10 M, CD at 222 nm, 5-30 µM CTD, 50 mM phosphate pH 7.0, ionic strength 200 mM (KCl), 298 K, reducing (1 mM DTE); three-state model N2-I2-D; dimeric intermediate to denatured monomers
[2] = target: CTD of MaSp1 from E. australis modified at C82 with AttoOxa11 (Euprosthenops australis); assay: fluorescence chasing experiment (dissociation kinetics); 60, 120 and 180 nM CTD-AttoOxa11 dimers chased with 20 µM chemically reduced wild-type CTD, manual mixing, 298 K, emission at 677 nm; bi-exponential fit; dimer to monomers
[3] = target: CTD of MaSp1 from E. australis modified at C82 with AttoOxa11 (Euprosthenops australis); assay: stopped-flow fluorescence spectroscopy (refolding and dimerisation of denatured monomers); sub-µM CTD-AttoOxa11 in 8 M urea mixed 1:10 into 50 mM phosphate pH 7.0, ionic strength 200 mM (KCl), 298 K; denatured monomers to dimeric intermediate I2

C-terminal domain (CTD) of major ampullate spidroin 1 (MaSp1) from Euprosthenops australis, wild type (domain or fragment)
stoichiometry N [1]: 2

CTD of MaSp1 from E. australis modified at C82 with AttoOxa11 (domain or fragment)
koff [2]: 0.008 s⁻¹
observed time constant of dissociation, first exponential, 60 nM [2]: 51 s
observed time constant of dissociation, first exponential, 120 nM [2]: 37 s
observed time constant of dissociation, first exponential, 180 nM [2]: 34 s
observed time constant of dissociation, second exponential, 60 nM [2]: 208 s
observed time constant of dissociation, second exponential, 120 nM [2]: 186 s
observed time constant of dissociation, second exponential, 180 nM [2]: 194 s
time constant of dissociation (mean weighted by amplitudes) [2]: 128 s
kon [3]: 5.2e+07 M⁻¹ s⁻¹
